# Test results: patent US20240228584A1 (FBD BIOLOGICS, published 2024)
# B1: G4_TGFβRII (wt) (Fc fusion)
# chain: IPPHVQKSVNNDMIVTDNNGAVKFPQLCKFCDVRFSTCDNQKSCMSNCSITSICEKPQEVCVAVWRKNDENITLETVCHDPKLPYHDFILEDAASPKCIMKEKKKPGETFFMCSCSSDECNDNIIFSEEYNTSNPD
# notes: TGFβRII extracellular domain linked to an IgG4 Fc region; Fc is placed first here only because of the name G4_TGFβRII; also called wild-type G4_TGFβRII protein; not shown: Fc region of IgG4 (and any linker)
# B2: human TGFβ3 (ligand, UniProt P10600 301-412, looked up)
# chain: ALDTNYCFRNLEENCCVRPLYIDFRQDLGWKWVHEPKGYYANFCSGPCPYLRSADTTHSTVLGLYNTLNPEASASPCCVPQDLEPLTILYYVGRTPKVEQLSNMVVKSCKCS
# Experiments:
# human TGFβ1 [1] = biological target: T1, human TGFβ1 (human, UniProt P01137 279-390); test: ELISA (on rate), plate coated with 0.5 ug/ml human TGFβ1, 5 min incubation, OD450
# Description: (§1) For on-rate binding ability, a 96-well EIA microplate was coated with 0.5 μg/ml human TGFβ (TGFβ1) overnight at 4° C. […] The unbound proteins were removed by washing the wells with 1×PBST (1×PBS containing 0.1% Tween 20) three times. A HRP-conjugated secondary antibody (1:5000) was added to the wells at RT for 1 hour. After the incubation, excess secondary antibodies were removed by washing the wells with 1×PBST three times. Finally, 3,3′,5,5′-Tetramethylbenzidine (TMB) was added for color development. The reaction was stopped and HRP activity was measured using a spectrophotometer at 450 nm.
# human TGFβ1 [2] = biological target: T1, human TGFβ1; test: cell-based or functional assay
# human TGFβ3 [3] = biological target: B2; test: cell-based or functional assay
# human TGFβ1 [4] = biological target: T1, human TGFβ1; test: ELISA, plate coated with 0.5 ug/ml human TGFβ1, 1 h incubation, HRP secondary antibody, OD450
# Description: as §1, with “A” for “For on-rate binding ability, a”, “ug/ml” for “μg/ml”, “(TGFβ1, TGFβ2, or TGFβ3)” for “(TGFβ1)”, “0.05%” for “0.1%”, “room temperature (RT)” for “RT”
# human TGFβ3 [5] = biological target: B2; test: ELISA, plate coated with 0.5 ug/ml human TGFβ3, 1 h incubation, HRP secondary antibody, OD450
# Description: as §1, with “A” for “For on-rate binding ability, a”, “ug/ml” for “μg/ml”, “(TGFβ1, TGFβ2, or TGFβ3)” for “(TGFβ1)”, “0.05%” for “0.1%”, “room temperature (RT)” for “RT”
# human TGFβ1 [6] = biological target: T1, human TGFβ1; test: ELISA (off rate), plate coated with 0.5 ug/ml human TGFβ1, 1 h incubation, then 2 h wash on a shaker, OD450
# Description: A HRP-conjugated secondary antibody (1:5000) was added to the wells at RT for 1 hour. After the incubation, excess secondary antibodies were removed by washing the wells with 1×PBST three times. Finally, 3,3′,5,5′-Tetramethylbenzidine (TMB) was added for color development. The reaction was stopped and HRP activity was measured using a spectrophotometer at 450 nm.
# G4_TGFβRII (wt) = biological target: B1; test: ELISA, plate coated with 0.5 ug/ml human TGFβ3, 1 h incubation, HRP secondary antibody, OD450
# Description: as §1, with “A” for “For on-rate binding ability, a”, “ug/ml” for “μg/ml”, “(TGFβ1, TGFβ2, or TGFβ3)” for “(TGFβ1)”, “0.05%” for “0.1%”, “room temperature (RT)” for “RT”
# T1 sequence (P01137 279-390 limits assumed): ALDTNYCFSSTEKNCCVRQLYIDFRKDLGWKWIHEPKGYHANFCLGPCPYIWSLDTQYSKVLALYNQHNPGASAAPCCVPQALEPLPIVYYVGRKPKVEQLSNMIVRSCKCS
EC50 (human TGFβ1 [1]),IC50 (read off the curve) (human TGFβ1 [2]),IC50 (read off the curve) (human TGFβ3 [3]),EC50 (read off the curve) (human TGFβ1 [4]),EC50 (read off the curve) (human TGFβ3 [5]),EC50 (read off the curve) (human TGFβ1 [6]),binding result (G4_TGFβRII (wt)),Binder
10.8 nM,~1 nM,~3 nM,~6 nM,~2 nM,~4 nM,–,B1
–,–,–,–,–,–,binds,B2
